In patent publication US20250026849A1 (ARCELLX, published 2025):

T1: P26 (human, UniProt P02771 381-609, limits assumed)
T1 construct: also called AFP p26
T1 sequence: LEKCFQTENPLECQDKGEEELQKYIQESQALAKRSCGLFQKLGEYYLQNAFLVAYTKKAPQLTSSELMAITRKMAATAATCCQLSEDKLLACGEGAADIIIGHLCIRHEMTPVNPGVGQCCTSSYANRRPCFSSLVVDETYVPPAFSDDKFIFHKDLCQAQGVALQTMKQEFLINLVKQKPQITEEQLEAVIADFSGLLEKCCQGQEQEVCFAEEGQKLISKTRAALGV

T2: CD123 (Homo sapiens (Human), UniProt P26951 19-305, limits assumed)
T2 construct: also called CD123-Signal
T2 sequence: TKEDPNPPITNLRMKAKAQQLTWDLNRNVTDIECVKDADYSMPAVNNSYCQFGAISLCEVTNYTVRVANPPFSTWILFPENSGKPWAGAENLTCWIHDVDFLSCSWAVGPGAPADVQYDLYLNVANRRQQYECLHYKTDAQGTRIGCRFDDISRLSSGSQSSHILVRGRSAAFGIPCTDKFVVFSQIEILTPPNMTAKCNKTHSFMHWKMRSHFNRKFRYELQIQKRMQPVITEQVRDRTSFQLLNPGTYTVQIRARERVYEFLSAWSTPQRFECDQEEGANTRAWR


Tests used:
P26 = molecular target: T1, P26; assay: ELISA, format not described; set-up: unit not given here
CD123 = molecular target: T2, CD123; assay: ELISA, format not described; set-up: unit not given here

| Binder | ELISA_avg (P26) | ELISA_avg (CD123) |
| --- | --- | --- |
| D domain SEQ ID NO: 665 (designed binder) MGSWDEFDARLWAIEERLWALGGSEAELAEFEFMIAAFEDVLQEYKGKGNPEVEALMGEANAIVMELDAYRHN | – | 4.3 |
| D domain SEQ ID NO: 661 (designed binder) MGSWWEFEQRLDAIETRLWALGGSEAELAYFEHIIADFEDELQIYKGKGNPEVEALGWEAFAIDGELTAYRHN | – | 4.7 |
| D domain SEQ ID NO: 670 (designed binder) MGSWWEFEDRLWAIEQRLDALGGSEAELAVFENSIAKFEDMLQVYKGKGNPEVEALHEEADAIIWELYAYRHN | – | 4.4 |
| D domain SEQ ID NO: 663 (designed binder) MGSWVEFYDRLEAIEIRLWALGGSEAELADFESFIAHFEDDLQAYKGKGNPEVEALMDEANAIVFELDAYRHN | – | 4 |
| D domain SEQ ID NO: 669 (designed binder) MGSWFEFQWRLEAIEDRLWALGGSEAELAEFETIIAGFEEQLQVYKGKGNPEVEALEEEAMAIQTELHAYRHN | – | 3.4 |
| D domain SEQ ID NO: 668 (designed binder) MGSWYEFYWRLEAIEERLWALGGSEAELAEFEKAIATFEDQLQTYKGKGNPEVEALETEALAIHAELEAYRHN | – | 3.7 |
| D domain SEQ ID NO: 960 (designed binder) MGSWIIFKTDLARIKNYLEALGGSEAELATFERDIAWFEFMLQIYKGKGNPEVEALRKEAAAIRDELQAYRHN | 16.7 | – |
| D domain SEQ ID NO: 967 (designed binder) MGSWYTFKGSLAEIKNRLEALGGSEAELAMFESDIAWFEFMLQFYKGKGNPEVEALRKEAAAIRDELQAYRHN | 32.3 | – |
| D domain SEQ ID NO: 973 (designed binder) MGSWEIFKDDLASIKKVLEALGGSEAELALFESDIAWFELMLQYYKGKGNPEVEALRKEAAAIRDELQAYRHN | 27.9 | – |
| D domain SEQ ID NO: 968 (designed binder) MGSWFTFKDDLAQIKNRLEALGGSEAELANFEMSIAWFEFMLQYYKGKGNPEVEALRKEAAAIRDELQAYRHN | 30.8 | – |
| D domain SEQ ID NO: 667 (designed binder) MGSWHEFIWRLDAIEERLWALGGSEAELAWFETEIATFEAQLQDYKGKGNPEVEALEWEAIAIAWELDAYRHN | – | 3.3 |
| D domain SEQ ID NO: 972 (designed binder) MGSWSIFKQDLADIKDSLEALGGSEAELAMFEMDIAWFEHTLQYYKGKGNPEVEALRKEAAAIRDELQAYRHN | 16.6 | – |
| D domain SEQ ID NO: 975 (designed binder) MGSWSVFKDDLAQIKDRLEALGGSEAELAQFELDIAWFEYVLQFYKGKGNPEVEALRKEAAAIRDELQAYRHN | 30.3 | – |
| D domain SEQ ID NO: 969 (designed binder) MGSWVLFKQDLAMIKQRLEALGGSEAELAMFEYDIAWFEHMLQYYKGKGNPEVEALRKEAAAIRDELQAYRHN | 29.7 | – |
| D domain SEQ ID NO: 962 (designed binder) MGSWQIFKQDLAAIKDYLEALGGSEAELAIFEFDIAWFEHMLQWYKGKGNPEVEALRKEAAAIRDELQAYRHN | 17.4 | – |
| D domain SEQ ID NO: 971 (designed binder) MGSWSYFKEDLANIKSSLEALGGSEAELAWFESSIAWFEHTLQYYKGKGNPEVEALRKEAAAIRDELQAYRHN | 11.6 | – |
| D domain SEQ ID NO: 961 (designed binder) MGSWMHFKQDLAEIKGYLEALGGSEAELAIFEMDIAWFEYMLQYYKGKGNPEVEALRKEAAAIRDELQAYRHN | 18.9 | – |
| D domain SEQ ID NO: 970 (designed binder) MGSWVEFKRDLANIKQRLEALGGSEAELAQFEMQIAWFEHTLQYYKGKGNPEVEALRKEAAAIRDELQAYRHN | 30.4 | – |
| D domain SEQ ID NO: 666 (designed binder) MGSWYEFWRRLDAIEERLWALGGSEAELAMFETDIAGFEWMLQLYKGKGNPEVEALEHEAWAINSELDAYRHN | – | 3.6 |
| D domain SEQ ID NO: 660 (designed binder) MGSWYEFEQRLGAIEERLWALGGSEAELAAFEDIIAYFEYQLQSYKGKGNPEVEALDEEAWAIDDELWAYRHN | – | 10.6 |
| D domain SEQ ID NO: 662 (designed binder) MGSWFEFPYRLEAIEERLYALGGSEAELAQFEQFIAWFEMDLQDYKGKGNPEVEALWFEANAIVEELDAYRHN | – | 3.1 |
| D domain SEQ ID NO: 664 (designed binder) MGSWVEFWDRLDAIEERLWALGGSEAELAEFEFMIAMFEQHLQEYKGKGNPEVEALIPEAGAIDKELTAYRHN | – | 10 |

Next, values leading:

| ELISA_avg (P26) | ELISA_avg (CD123) | Binder |
| --- | --- | --- |
| 25.6 | – | D domain SEQ ID NO: 981 (designed binder) MGSWHSFKQDLAYIKYLLEALGGSEAELAQFEELIAFFEYYLQTYKGKGNPEVEALRKEAAAIRDELQAYRHN |
| 8.6 | – | D domain SEQ ID NO: 982 (designed binder) MGSWVVFKSSLAQIKILLEALGGSEAELAIFEVKIAHFEQELQEYKGKGNPEVEALRKEAAAIRDELQAYRHN |
| 15.6 | – | D domain SEQ ID NO: 983 (designed binder) MGSWDQFKNSLASIKRVLEALGGSEAELAIFEVKIAHFEHFLQQYKGKGNPEVEALRKEAAAIRDELQAYRHN |
| 24.1 | – | D domain SEQ ID NO: 984 (designed binder) MGSWNNFKSSLASIKQVLEALGGSEAELAVFELQIAHFERELQYYKGKGNPEVEALRKEAAAIRDELQAYRHN |
| 17.8 | – | D domain SEQ ID NO: 979 (designed binder) MGSWMVFKQDLAEIKANLEALGGSEAELADFEFAIAWFEYELQWYKGKGNPEVEALRKEAAAIRDELQAYRHN |
| 29.9 | – | D domain SEQ ID NO: 977 (designed binder) MGSWIAFKDHLAIIKQRLEALGGSEAELARFEFEIAWFEWMLQYYKGKGNPEVEALRKEAAAIRDELQAYRHN |
| 24.1 | – | D domain SEQ ID NO: 976 (designed binder) MGSWAVFKDSLAHIKDVLEALGGSEAELALFEMDIAWFEYVLQDYKGKGNPEVEALRKEAAAIRDELQAYRHN |
| 25.6 | – | D domain SEQ ID NO: 974 (designed binder) MGSWSIFKDDLAVIKERLEALGGSEAELAHFEQDIAWFEHLLQYYKGKGNPEVEALRKEAAAIRDELQAYRHN |
| 17.9 | – | D domain SEQ ID NO: 978 (designed binder) MGSWIHFKNDLAVIKDELEALGGSEAELARFEIMIAWFEDALQWYKGKGNPEVEALRKEAAAIRDELQAYRHN |
| 20.6 | – | D domain SEQ ID NO: 980 (designed binder) MGSWKNFKLELALIKSKLEALGGSEAELAQFEADIAFFEWSLQWYKGKGNPEVEALRKEAAAIRDELQAYRHN |
